Experimental data reported in the supplement of paper PMC10567573.

B1: TMEM175 (parent)
chain: SCTIIFLASIFQLAMWTTALLHQA
B2: TBX5 (parent)
chain: FHEVGTEMIITKAGRRMFPSYKVK

Variants of: B1
Assay: protein stability index of a GFP-peptide fusion (GPS, HEK-293T) (PSI 1-6); higher = more stable
Details: c terminus: a fixed tail appended
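Also: lentivirally expressed fusions sorted by FACS into six bins by GFP to DsRed ratio, PSI derived from sequencing read proportions per bin multiplied by bin number.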

Protein stability index: each site, then its substitutions
Q23: F 3.89 | M 3.84 | I 2.95 | S 3.77 | P 3 | H 2.71 | K 3.26 | N 4.37 | G 4.5 | T 3.34 | E 2.09 | W 3.32 | V 3.24
L21: C 3.36 | R 3.98 | Y 3.71 | S 3.45 | I 2.71 | T 3.02 | V 3.72 | E 2.55 | D 3.61 | M 2.73 | F 2.81 | K 3.7 | A 1.45 | P 3.35 | Q 2.64 | H 3.3 | N 2.05
T17: P 2.64 | R 2.01 | H 4.62 | W 4 | Y 2.83 | Q 2.52 | N 3.8 | L 3.31 | V 2.22 | I 3.54 | S 2.31 | K 2.94
T18: C 3.17 | L 2.73 | Y 2.68 | E 2.78 | A 2.23 | F 3.03 | G 1.6 | P 3.36 | R 2.09 | K 2.31 | D 2.18 | I 2.16 | S 3.06 | H 2.85
H22: I 4.4 | Q 2.97 | T 2.65 | G 3.04 | A 3.84 | V 3.39 | W 3.14 | Y 2.5 | K 3.44 | M 2.74 | L 1.86 | P 3 | C 3.02 | F 2.6 | N 2.87 | R 2.5
A19: D 2.3 | I 2.14 | P 4.62 | T 3.07 | W 3.12 | Y 2.1 | M 3.22 | K 2.76 | V 2.43 | L 2.11 | H 1.58 | E 2.73 | R 2.19 | F 3.13
A24: R 2.43 | I 3.19 | E 3.22 | K 2.88 | T 3.01 | D 4.05 | C 3.39 | V 1.5 | N 2.45 | W 3.03 | M 1.89 | Y 2.61 | F 2.62 | S 1.55 | L 3.17 | H 2.67 | Q 2.56
L20: M 3.22 | R 3.39 | G 1.94 | W 1.4 | D 3.05 | H 3.02 | P 1.81 | Y 3.22 | Q 3.1 | A 3.09 | S 3.1 | N 3.09 | I 3.51 | F 2.74

Variants of: B2
Assay: as above
Details: c terminus: a fixed tail appended

Protein stability index: each site, then its substitutions
K12: P 2.12 | T 1.78 | Q 1.73 | L 2.81 | Y 2.91 | G 2.1 | D 2.57 | F 2.76 | A 2.52 | V 2.68 | N 2.1 | I 1.6 | R 2.02 | C 1.31 | S 2.51 | E 1.83 | H 1.8
M8: Q 2.06 | T 2.2 | S 2.34 | A 2.27 | E 3.03 | G 1.93 | P 2.08 | C 2.09 | I 1.33 | N 2.38 | F 1.59 | Y 1.87 | L 1.66 | V 1.43 | W 2.07 | H 2.33 | K 2.68 | D 3.29 | R 1.79
F1: C 2.18 | G 3.65 | E 3.68 | H 2.41 | W 2.46 | S 3.09 | Y 2.55 | M 3.02 | L 2.3 | I 2.44 | K 3.54 | T 3.13 | Q 3.25 | V 2.58 | A 3.81 | R 2.58 | P 3.5 | N 3.4 | D 3.1
T11: I 1.19 | E 2.36 | R 2.47 | Q 1.88 | D 2.13 | N 2.46 | M 1.53 | S 3.49 | P 2.28 | K 2.59 | V 1.76 | L 2.14 | C 2.44 | F 1.71 | Y 1.02 | A 3.29
E7: D 1.81 | K 1.92 | G 2.98 | P 1.71 | L 1.93 | S 1.66 | N 1.88 | T 1.87 | W 2.06 | Q 1.81 | H 1.55 | C 2.07 | M 1.49 | V 1.84 | A 2.82
H2: W 1.57 | C 1.72 | V 2.38 | F 2.39 | Y 2.41 | M 2.03 | P 2.27 | G 2.48 | S 2.53 | R 2.53 | Q 1.84 | L 2.07 | I 1.69 | K 2.24 | A 2.04 | E 3.09 | N 2.93 | D 2.67 | T 1.85
E3: F 2.39 | N 1.03 | R 2.58 | S 2.8 | D 1.26 | K 1.45 | A 1.87 | I 4.17 | H 1.06 | Q 1.8 | P 2.42 | C 2.54 | T 1.03 | V 2.58
G5: Y 1.49 | P 2.05 | K 1.88 | M 1.69 | T 1.92 | D 2.58 | L 1.92 | N 1.5 | I 3.47 | C 2.02 | V 1.23 | H 1.92 | S 2.76 | Q 2.13 | A 2.44
I10: K 2.84 | L 2.21 | N 2.03 | C 2.41 | E 2.66 | Y 1.48 | V 2.14 | H 2.25 | S 3.26 | F 3.28 | M 1.63 | W 1.76 | D 3.5 | T 1.91 | Q 2.45 | A 1.68 | R 2.21 | P 2.44
A13: F 1.97 | N 2.27 | C 2.03 | K 2.44 | H 2.11 | D 2.57 | Q 2.65 | P 1.93 | L 2.61 | E 2.68 | G 1.84 | M 1.3
V4: R 1.42 | S 1.95 | F 2.65 | M 1.6 | N 2.05 | A 1.97 | D 2.48 | G 2.32 | H 1.85 | I 2.41 | Y 2.46 | P 1.86 | L 2.09 | T 2.34 | K 1.98 | C 2 | Q 1.96 | E 2.23
T6: Y 1.56 | E 3.65 | A 1.93 | L 3.1 | G 2.9 | V 2.07 | N 1.68 | W 2.13 | D 2.25 | K 2.23 | C 1.52 | S 2.21 | H 2.01 | Q 2.2 | P 1.3 | R 1.62 | M 1.37 | F 2.76
I9: F 2.52 | K 2.48 | Q 2.5 | V 3.05 | Y 1.8 | D 2.38 | P 2.75 | C 1.5 | N 2.46 | M 2.19 | E 3.06 | S 2.29 | L 1.79 | G 2 | A 2.38 | T 2.84 | R 2.68
